This is an account of results in patent US20250320281A1.

What all share (assay): cell-based or functional assay
For assay [1], the target named is HIV-1 Env of isolate MGRM-C-026 (pseudovirus) (HIV-1).
Assay [2] has as its target HIV-1 Env of isolate 92TH021 (pseudovirus) (HIV-1).
In assay [3] the target is HIV-1 Env of isolate JR-CSF (pseudovirus) (HIV-1) (UniProt P20871).
In assay [4] the target is HIV-1 Env of isolate MGRM-C-020 (HIV-1).
The target in assay [5] is HIV-1 Env of isolate MGRM-C-019 (HIV-1).
Assay [6] concerns the target HIV-1 Env of isolate MGRM-C-025 (HIV-1).
Assay [7] deals with HIV-1 Env of isolate MGRM-C-022 (HIV-1).
The target of assay [8] is HIV-1 Env of isolate MGRM-C-028 (HIV-1).
For assay [9], the target named is HIV-1 Env of isolate MGRM-C-017 (HIV-1).
Assay [10] concerns the target HIV-1 Env of isolate MGRM-C-024 (HIV-1).
Assay [11] has as its target HIV-1 Env of isolate MGRM-C-026 (HIV-1).
The target of assay [12] is HIV-1 Env of isolate MGRM-C-023 (HIV-1).
Assay [13] has as its target HIV-1 Env of isolate MGRM-C-027 (HIV-1).
In assay [14] the target is HIV-1 Env of isolate MGRM-C-014 (HIV-1).
Assay [15] deals with HIV-1 Env of isolate MGRM-C-015 (HIV-1).
In assay [16] the target is HIV-1 Env of isolate MGRM-F1-012 (HIV-1).
In assay [17] the target is HIV-1 Env of pseudovirus MGRM-AG-003 (subtype AG) (HIV-1).
In assay [18] the target is HIV-1 Env of isolate MG RM-D-019 (HIV-1).
Assay [19] deals with HIV-1 Env of isolate MG RM-D-028 (HIV-1).
Assay [20] deals with HIV-1 Env of pseudovirus MGRM-AE-008 (subtype AE) (HIV-1).
The target of assay [21] is HIV-1 Env of isolate MGRM-F1-014 (HIV-1).
Assay [22] deals with HIV-1 Env of pseudovirus MGRM-AG-002 (subtype AG) (HIV-1).
In assay [23] the target is HIV-1 Env of pseudovirus MGRM-AG-009 (subtype AG) (HIV-1).
For assay [24], the target named is HIV-1 Env of isolate MGRM-F1-006 (HIV-1).
Assay [25] concerns the target HIV-1 Env of isolate MG RM-D-013 (HIV-1).
The target in assay [26] is HIV-1 Env of isolate MGRM-F1-016 (HIV-1).
For assay [27], the target named is HIV-1 Env of isolate MG RM-D-029 (HIV-1).
The target of assay [28] is HIV-1 Env of isolate MG RM-D-022 (HIV-1).
For assay [29], the target named is HIV-1 Env of pseudovirus MGRM-AG-013 (subtype AG) (HIV-1).
Assay [30] deals with HIV-1 Env of isolate MGRM-F1-018 (HIV-1).
Assay [31] deals with HIV-1 Env of pseudovirus MGRM-AE-007 (subtype AE) (HIV-1).
Assay [32] addresses HIV-1 Env of isolate MG RM-D-021 (HIV-1).
In assay [33] the target is HIV-1 Env of isolate MG RM-D-011 (HIV-1).
Assay [34] has as its target HIV-1 Env of isolate MGRM-F1-015 (HIV-1).
The target in assay [35] is HIV-1 Env of isolate MGRM-F1-022 (HIV-1).
Assay [36] addresses HIV-1 Env of isolate MG RM-D-026 (HIV-1).
Assay [37] concerns the target HIV-1 Env of pseudovirus MGRM-AG-012 (subtype AG) (HIV-1).
The target in assay [38] is HIV-1 Env of pseudovirus MGRM-AG-006 (subtype AG) (HIV-1).
Assay [39] concerns the target HIV-1 Env of isolate MG RM-D-012 (HIV-1).
The target of assay [40] is HIV-1 Env of isolate MGRM-F1-017 (HIV-1).
Assay [41] concerns the target HIV-1 Env of isolate MGRM-F1-020 (HIV-1).
For assay [42], the target named is HIV-1 Env of isolate MG RM-D-014 (HIV-1).
The target in assay [43] is HIV-1 Env of isolate MGRM-F1-004 (HIV-1).
For assay [44], the target named is HIV-1 Env of isolate MG RM-D-016 (HIV-1).
Assay [45] has as its target HIV-1 Env of isolate MGRM-F1-010 (HIV-1).
For assay [46], the target named is HIV-1 Env of isolate MGRM-F1-021 (HIV-1).
Assay [47] addresses HIV-1 Env of isolate MG RM-D-018 (HIV-1).
Assay [48] has as its target HIV-1 Env of pseudovirus MGRM-AG-011 (subtype AG) (HIV-1).
Assay [49] has as its target HIV-1 Env of pseudovirus MGRM-AG-005 (subtype AG) (HIV-1).
Assay [50] deals with HIV-1 Env of isolate MG RM-D-024 (HIV-1).
Assay [51] addresses HIV-1 Env of isolate MGRM-F1-023 (HIV-1).
The target in assay [52] is HIV-1 Env of isolate MG RM-D-020 (HIV-1).
Assay [53] has as its target HIV-1 Env of pseudovirus MGRM-AG-008 (subtype AG) (HIV-1).
Assay [54] addresses HIV-1 Env of isolate MGRM-F1-008 (HIV-1).
Assay [55] deals with HIV-1 Env of isolate MGRM-F1-013 (HIV-1).
For assay [56], the target named is HIV-1 Env of pseudovirus MGRM-AG-001 (subtype AG) (HIV-1).

A value given as a limit tells only on which side of the number the result lay.

Sequence of PGT-145 (antibody) (VH): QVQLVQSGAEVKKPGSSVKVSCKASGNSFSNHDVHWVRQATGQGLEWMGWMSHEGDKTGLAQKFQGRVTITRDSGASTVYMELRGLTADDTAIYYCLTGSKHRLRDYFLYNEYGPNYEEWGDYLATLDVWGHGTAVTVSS
Sequence of PGT-145 (antibody) (VL): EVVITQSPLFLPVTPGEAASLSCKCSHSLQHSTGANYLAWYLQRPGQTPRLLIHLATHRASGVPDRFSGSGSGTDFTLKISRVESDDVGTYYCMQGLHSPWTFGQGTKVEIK
Sequence of PGT-142 (4995_E20) (antibody) (VH): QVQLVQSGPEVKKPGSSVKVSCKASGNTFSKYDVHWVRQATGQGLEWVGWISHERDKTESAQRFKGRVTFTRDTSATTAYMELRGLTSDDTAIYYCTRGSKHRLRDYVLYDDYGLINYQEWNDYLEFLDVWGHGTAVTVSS
Sequence of PGT-142 (4995_E20) (antibody) (VL): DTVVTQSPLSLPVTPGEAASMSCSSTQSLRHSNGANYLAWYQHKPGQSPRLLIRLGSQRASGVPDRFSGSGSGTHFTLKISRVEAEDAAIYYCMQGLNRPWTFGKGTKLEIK
Sequence of PGT-144 (antibody) (VH): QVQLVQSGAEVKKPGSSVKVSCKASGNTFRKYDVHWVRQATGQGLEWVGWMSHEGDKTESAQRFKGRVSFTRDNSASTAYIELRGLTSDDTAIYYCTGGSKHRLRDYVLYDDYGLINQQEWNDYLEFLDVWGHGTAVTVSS
Sequence of PGT-144 (antibody) (VL): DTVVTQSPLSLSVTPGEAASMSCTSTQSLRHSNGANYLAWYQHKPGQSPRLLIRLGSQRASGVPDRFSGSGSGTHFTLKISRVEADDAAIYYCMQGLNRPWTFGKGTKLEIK
Sequence of PGT-141 (antibody) (VH): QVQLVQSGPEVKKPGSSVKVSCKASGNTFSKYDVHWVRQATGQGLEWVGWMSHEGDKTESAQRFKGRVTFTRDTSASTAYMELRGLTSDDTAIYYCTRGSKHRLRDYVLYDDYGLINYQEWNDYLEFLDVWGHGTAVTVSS
Sequence of PGT-143 (antibody) (VH): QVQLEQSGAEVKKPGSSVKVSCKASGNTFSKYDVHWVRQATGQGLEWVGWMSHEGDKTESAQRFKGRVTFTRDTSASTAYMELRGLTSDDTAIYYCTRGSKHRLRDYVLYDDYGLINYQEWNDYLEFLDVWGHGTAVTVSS
Sequence of PGT-143 (antibody) (VL): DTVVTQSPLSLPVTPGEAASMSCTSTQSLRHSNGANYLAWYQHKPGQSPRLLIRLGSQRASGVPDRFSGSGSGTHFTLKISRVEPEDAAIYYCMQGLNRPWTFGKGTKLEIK

With “5113_D22 (labelled PGT-132 in Table 26) (antibody)”, the Primary Neutralization Index (B cell culture supernatant) in assay [1] amounted to 6; in assay [2], 51; in assay [3], 3.

As for “5117_E22 (labelled PGT-133 in Table 26) (antibody)”, the Primary Neutralization Index (B cell culture supernatant) in assay [1] worked out at 3.4; in assay [2] it was 42.5; in assay [3] it was 3.6.

Regarding PGT-141 (antibody), the IC50 (µg/mL), pseudovirus neutralization in assay [4] stood at 1.34 µg/mL; in [5], 0.008 µg/mL; in assay [6], 0.247 µg/mL; in [7] it was 0.381 µg/mL; in assay [8], 13.8 µg/mL; in [9], 4.02 µg/mL. Moreover, the IC50 (µg/mL), pseudovirus neutralization is 0.101 µg/mL in [10]; over 50 µg/mL in assay [11]; 0.153 µg/mL in assay [12]; 3.27 µg/mL in assay [13]; 11.8 µg/mL in assay [14]; 0.033 µg/mL in assay [15].

The IC50 is the concentration at which inhibition is half-maximal. Low readings indicate inhibition by little substance, high ones a need for much substance. Regarding PGT-142 (4995_E20) (antibody), the IC50 in assay [16] was over 50 µg/mL; in assay [18], 0.155 µg/mL; in [19], over 50 µg/mL; in assay [21], 1 ng/mL; in assay [24] it was 12.9 µg/mL; in assay [25], 0.221 µg/mL. Besides, the IC50 in assay [26] was over 50 µg/mL; in assay [27], 0.192 µg/mL; in [28] it was over 50 µg/mL; in assay [30], 0.404 µg/mL; in assay [32], over 50 µg/mL; in assay [33], over 50 µg/mL. In addition, the IC50 in assay [34] is over 50 µg/mL; in assay [35] it was 0.04 µg/mL; in assay [36] it was 12.5 µg/mL; in assay [39], over 50 µg/mL; in assay [40], 23.5 µg/mL; in assay [41], 0.824 µg/mL. For the same substance, the IC50 is 5 ng/mL in assay [42]; 0.013 µg/mL in assay [43]; over 50 µg/mL in assay [44]; over 50 µg/mL in assay [45]; over 50 µg/mL in [46]; over 50 µg/mL in assay [47]. Besides, the IC50 in assay [50] is over 50 µg/mL; in assay [51], 0.602 µg/mL; in assay [52], over 50 µg/mL; in assay [54], 0.124 µg/mL; in assay [55], 0.023 µg/mL. Also, the IC50, pseudovirus neutralization in assay [17] was over 50 µg/mL; in [20], 0.08 µg/mL; in [22], 0.044 µg/mL; in [23] it was over 50 µg/mL; in assay [29], 21.7 µg/mL; in assay [31] it was 6.7 µg/mL. The IC50, pseudovirus neutralization in assay [37] was over 50 µg/mL; in assay [38], over 50 µg/mL; in [48], 0.081 µg/mL; in assay [49], 0.383 µg/mL; in assay [53], 12.1 µg/mL; in [56] it was 12.4 µg/mL.

As for PGT-142 (antibody), the IC50 (µg/mL), pseudovirus neutralization was found to be 0.446 µg/mL in [4]; 0.003 µg/mL in assay [5]; 0.183 µg/mL in assay [6]; 0.086 µg/mL in assay [7]; 2.12 µg/mL in assay [8]; 1.11 µg/mL in assay [9]. Moreover, the IC50 (µg/mL), pseudovirus neutralization in [10] was 0.03 µg/mL; in [11] it was over 50 µg/mL; in [12], 0.087 µg/mL; in assay [13] it was 0.792 µg/mL; in assay [14], 6.02 µg/mL; in assay [15] it was 0.038 µg/mL.

On to PGT-143 (antibody), for which the IC50 (µg/mL), pseudovirus neutralization in assay [4] worked out at 0.797 µg/mL; in assay [5], 0.004 µg/mL; in assay [6], 0.336 µg/mL; in assay [7], 0.103 µg/mL; in [8], 12.4 µg/mL; in [9] it was 5.17 µg/mL. Besides, the IC50 (µg/mL), pseudovirus neutralization in [10] is 0.05 µg/mL; in assay [11], over 50 µg/mL; in [12] it was 0.148 µg/mL; in assay [13], 0.598 µg/mL; in assay [14] it was 8.81 µg/mL; in assay [15], 0.085 µg/mL.

On to PGT-144 (antibody), for which the IC50 (µg/mL), pseudovirus neutralization in [4] is 1.29 µg/mL; in [5], 0.513 µg/mL; in [6], 17.6 µg/mL; in [7], 2.58 µg/mL; in assay [8] it was over 50 µg/mL; in assay [9], 23 µg/mL. Also, the IC50 (µg/mL), pseudovirus neutralization was 2.06 µg/mL in assay [10]; over 50 µg/mL in assay [11]; 0.38 µg/mL in assay [12]; over 50 µg/mL in assay [13]; over 50 µg/mL in assay [14]; 0.236 µg/mL in [15].

On to PGT-145 (antibody), for which the IC50 (µg/mL), pseudovirus neutralization in assay [4] is 0.712 µg/mL; in assay [5] it was 0.005 µg/mL; in assay [6] it was 0.044 µg/mL; in [7], 0.492 µg/mL; in assay [8], 0.099 µg/mL; in assay [9], over 50 µg/mL. In addition, the IC50 (µg/mL), pseudovirus neutralization was 0.174 µg/mL in assay [10]; over 50 µg/mL in assay [11]; 0.201 µg/mL in [12]; 0.095 µg/mL in assay [13]; 5.82 µg/mL in assay [14]; 0.12 µg/mL in assay [15].
